US20230203142A1 (published 2023)
Values belong to the binder of their own block, whether it stands above or below them.

What was measured:
[1] = biological target: T1, human NDPK-A (nucleoside diphosphate kinase A), full-length recombinant (human, UniProt P15531 2-152); assay: MST, NDPK labelled, FABP4 unlabelled
T1 construct: Bought protein (Acro Biosystems NM1-H5147); It was fluorescently labelled (lysine, cysteine or His-tag dye) in MST; also called nm23
Experimental: (§1) Human NDPK-A (Acro Biosystems, product number NM1-H5147) was prepared in PBS to a stock concentration of 0.4 mg/ml. Human ADK (Novus Biologicals, product number NBP1-44382 or R&D Systems, product number 8024-AK-025) was purchased at a stock concentration of 0.5 mg/ml and buffer exchanged into PBS. Protein concentration used for labeling was 20 uM. Experiments were conducted independently with each of NDPK and ADK labeled with each kit (i.e., experiments were performed with lysine-labeled, cysteine-labeled, and His-labeled versions of each protein to confirm the site of labeling was not influencing detected interaction). […] Concentration of labeled proteins ranged from 12 nM to 20 nM, as determined by MST quantification to obtain a fluorescence intensity of ˜350 from each capillary tube. […]
(§2) To further confirm the formation of the proposed complex, GST-tagged NDPK (GST-NDPK) was generated and immunoprecipitation experiments were performed to investigate the interaction of each proposed component with NDPK. Interaction between all three components of the proposed complex, as well as with the complex and a-Ab (FIG. 4M) were readily identified.

[2] = biological target: T2, human ADK (adenosine kinase), recombinant (human, UniProt P55263 2-362); assay: MST, one-to-one recombinant proteins, ADK labelled
T2 construct: Bought protein (Novus Biologicals NBP1-44382 or R&D Systems 8024-AK-025); It was fluorescently labelled in MST
Experimental: Additionally, one-to-one recombinant protein interaction assays were performed using Microscale Thermophoresis (MST) to independently validate the interactions between each of the proposed complex components. MST is a technology for the interaction analysis of biomolecules. MST is the directed movement of particles in a microscopic temperature gradient. Any change of the hydration shell of biomolecules due to changes in their structure/conformation results in a relative change of the movement along the temperature gradient and is used to determine binding affinities. MST allows measurement of interactions directly in solution without the need of immobilization to a surface (immobilization-free technology).
To perform this technique, proteins were desalted and buffer exchanged into PBS prior to labeling. […] Experiments were conducted independently with each of NDPK and ADK labeled with each kit (i.e., experiments were performed with lysine-labeled, cysteine-labeled, and His-labeled versions of each protein to confirm the site of labeling was not influencing detected interaction). […] Concentration of labeled proteins ranged from 12 nM to 20 nM, as determined by MST quantification to obtain a fluorescence intensity of ˜350 from each capillary tube. […]

[3] = biological target: T3, NDPK-A peptide 7 (human); assay: MST, His-tag-labelled peptide against a-Ab
T3 peptide: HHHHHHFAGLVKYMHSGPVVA

[4] = biological target: T4, NDPK-A peptide 4 (human); assay: MST, His-tag-labelled peptide against a-Ab
T4 peptide: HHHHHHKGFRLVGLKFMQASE

[5] = biological target: T5, NDPK-A peptide 9 (human); assay: MST, His-tag-labelled peptide against a-Ab
T5 peptide: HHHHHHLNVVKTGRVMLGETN

[6] = biological target: T6, NDPK-A peptide 14 (human); assay: MST, His-tag-labelled peptide against a-Ab
T6 peptide: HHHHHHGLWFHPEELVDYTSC

[7] = biological target: T7, NDPK-A peptide 1 (human); assay: MST, His-tag-labelled peptide against a-Ab
T7 peptide: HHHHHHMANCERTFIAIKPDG

[8] = biological target: T8, NDPK-A peptide 5 (human); assay: MST, His-tag-labelled peptide against a-Ab
T8 peptide: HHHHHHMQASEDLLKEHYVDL

[9] = biological target: T9, NDPK-A peptide 11 (human); assay: MST, His-tag-labelled peptide against a-Ab
T9 peptide: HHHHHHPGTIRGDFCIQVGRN

[10] = biological target: T10, NDPK-A peptide 13 (human); assay: MST, His-tag-labelled peptide against a-Ab
T10 peptide: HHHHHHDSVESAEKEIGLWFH

[11] = biological target: T11, NDPK-A peptide 12 (human); assay: MST, His-tag-labelled peptide against a-Ab
T11 peptide: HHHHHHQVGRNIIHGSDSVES

[12] = biological target: T12, NDPK-A peptide 15 (human); assay: MST, His-tag-labelled peptide against a-Ab
T12 peptide: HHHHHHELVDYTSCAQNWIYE

[13] = biological target: T13, NDPK-A peptide 6 (human); assay: MST, His-tag-labelled peptide against a-Ab
T13 peptide: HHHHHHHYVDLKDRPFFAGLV

[14] = biological target: T14, NDPK-A peptide 10 (human); assay: MST, His-tag-labelled peptide against a-Ab
T14 peptide: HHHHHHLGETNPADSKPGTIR

[15] = biological target: T1, human NDPK-A (nucleoside diphosphate …); assay: MST, NDPK labelled, antibody unlabelled
Experimental: as §1, §2

[16] = biological target: T2, human ADK (adenosine kinase), …; assay: MST, ADK labelled, antibody unlabelled
Experimental: To perform this technique, proteins were desalted and buffer exchanged into PBS prior to labeling. Desalting was performed using Zeba Spin Desalting Columns (Thermo Scientific, product number 89882, 0.5 ml volume) in a volume of 0.1 ml according to the manufacturer's instructions. Human NDPK-A (Acro Biosystems, product number NM1-H5147) was prepared in PBS to a stock concentration of 0.4 mg/ml. Human ADK (Novus Biologicals, product number NBP1-44382 or R&D Systems, product number 8024-AK-025) was purchased at a stock concentration of 0.5 mg/ml and buffer exchanged into PBS. Protein concentration used for labeling was 20 uM. Experiments were conducted independently with each of NDPK and ADK labeled with each kit (i.e., experiments were performed with lysine-labeled, cysteine-labeled, and His-labeled versions of each protein to confirm the site of labeling was not influencing detected interaction). Labeling kits were: Monolith Protein Labeling Kit RED-NETS (Amine Reactive; Product number MO-L001), Monolith Protein Labeling Kit RED-MALEIMIDE (Cysteine Reactive; Product number: MO-L004), and Monolith His-Tag Labeling Kit RED-tris-NTA (Product number: MO-L008). […] Concentration of labeled proteins ranged from 12 nM to 20 nM, as determined by MST quantification to obtain a fluorescence intensity of ˜350 from each capillary tube. […]

[17] = biological target: T1, human NDPK-A (nucleoside diphosphate …); assay: MST, His-tagged full-length NDPK-A; column head prints 'Binding Affinity (Ka)'
[18] = biological target: T15, NDPK-A peptide 3 (human); assay: MST, His-tagged peptide; column head prints 'Binding Affinity (Ka)'
T15 peptide: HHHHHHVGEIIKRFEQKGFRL

[19] = biological target: T16, NDPK-A peptide 2 (human); assay: as above
T16 peptide: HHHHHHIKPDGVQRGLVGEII

[20] = biological target: T17, NDPK-A peptide 8 (human); assay: as above
T17 peptide: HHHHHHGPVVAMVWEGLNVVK

T1 sequence (P15531 other isoform, or with tags, fused parts or gaps limits assumed): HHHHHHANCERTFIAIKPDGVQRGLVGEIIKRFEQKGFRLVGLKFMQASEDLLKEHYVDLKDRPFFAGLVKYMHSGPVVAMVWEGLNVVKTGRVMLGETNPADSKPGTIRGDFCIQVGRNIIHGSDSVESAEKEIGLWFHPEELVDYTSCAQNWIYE
T2 sequence (P55263 2-362 limits assumed): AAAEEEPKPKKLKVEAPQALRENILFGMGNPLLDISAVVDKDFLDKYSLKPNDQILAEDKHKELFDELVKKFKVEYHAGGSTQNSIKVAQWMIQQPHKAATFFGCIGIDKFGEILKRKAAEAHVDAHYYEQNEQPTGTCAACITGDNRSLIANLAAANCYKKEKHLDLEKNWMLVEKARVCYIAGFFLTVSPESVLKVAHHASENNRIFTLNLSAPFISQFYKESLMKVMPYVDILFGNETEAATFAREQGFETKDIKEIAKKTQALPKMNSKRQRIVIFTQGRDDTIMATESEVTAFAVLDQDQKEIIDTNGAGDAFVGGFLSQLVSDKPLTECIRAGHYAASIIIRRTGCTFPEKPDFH

Kd [1]: ~700 nM
Kd [2]: ~7 nM
B1: recombinant human FABP4 (fatty acid binding protein 4) (other)
chain: CDAFVGTWKLVSSENFDDYMKEVGVGFATRKVAGMAKPNMIISVNGDVITIKSESTFKNTEISFILGQEFDEVTADDRKVKSTITLDGGVLVHVQKWDGKSTTIKRKREDDKLVVECVMKGVTSTRVYERA
notes: Recombinant human FABP4 produced in-house; also called aP2; hormonal FABP4

binding result [3]: no binding
binding result [4]: no binding
binding result [5]: no binding
binding result [6]: no binding
binding result [7]: no binding
binding result [8]: no binding
binding result [9]: no binding
binding result [10]: no binding
binding result [11]: no binding
binding result [12]: no binding
binding result [13]: no binding
binding result [14]: no binding
Kd [15]: ~150 nM
Kd [16]: ~1900 nM
Kd [17]: 116 nM
Kd [18]: 8980 nM
Kd [19]: 15900 nM
Kd [20]: 69.6 nM
B2: CA33 (a-Ab) monoclonal antibody (antibody)
heavy: QSVEESGGRLVTPGTPLTLTCTVSGFSLSTYYMSWVRQAPGKGLEWIGIIYPSGSTYCASWAKGRFTISKASTTVDLKITSPTTEDTATYFCARPDNDGTSGYLSGFGLWGQGLVTVSSAKTTPPSVYPLAPGSAAQTNSMVTLGCLVKGYFPEPVTVTWNSGSLSSGVHTFPAVLQSDLYTLSSSVTVPSSTWPSETVTCNVAHPASSTKVDKKIVPRDC
light: DVVMTQTPASVSEPVGGTVTIKCGASEDISRYLVWYQQKPGQPPKRLIYKASTLASGVPSRFKGSGSGTDFTLTISDLECDDAATYYCQCTYGTYAGSFFYSFGGGTEVVVERTDAAPTVSIFPPSSEQLTSGGASVVCFLNNFYPKDINVKWKIDGSERQNGVLNSWTDQDSKDCTYSMSSTLTLTKDEYERHNSYTCEATHKTSTSPIVKSFNRNEC
notes: Described as a monoclonal antibody; also called active antibody
